Source: US20090325887A1
One block for each binder: values may come before it.

Molecular target: Cav3.1 channel (α3.1 subunit)
Test: cell-based or functional assay

amplitude of the fast component (Afast) of the unbinding process after 300 µM peptide (bi-exponential fit of current recovery) (normalized fraction): -0.37
apparent affinity (Kapp), overall: 50 µM
dissociation rate estimated from the time constant of Cav3.1 current recovery: 0.167 s⁻¹
fast time constant for binding (fit of current inhibition): < 9 s
fast time constant for unbinding (fit of current recovery): < 9 s
fold increase in affinity between -130 mV and -80 mV holding potential: 3 fold
inhibition of Cav3.1 current at 30 µM peptide (whole-cell patch clamp, HEK/Cav3.1): 45.3%
inhibition of Cav3.1 current at 100 µM peptide, -100 mV: 60%
inhibition of Cav3.1 current at 300 µM peptide: 79.3%
reversible part of the Cav3.1 current inhibition at 30 µM peptide: 73%
time constant of the small slower component of the binding and unbinding processes: > 30 s
Binder: LGLLVAIV [γ6 TM1a peptide]

inhibition of Cav3.1 current at 30 µM peptide: 29.4%
Binder: VGLFFALA [γ1 TM1a T12GI16A peptide]

The remaining lines, values behind:

Binder: LLILAVGV [γ6 TM1a SCR peptide]
inhibition of Cav3.1 current at 30 µM peptide: 0.5%

Binder: VTLFFILA [γ1 TM1a peptide]
inhibition of Cav3.1 current at 30 µM peptide: 2.4%
